These results are taken from US20170044257A1 (BRIGHAM AND WOMEN S HOSPITAL, published 2017).

This assay has as its target T1, human alpha-fetoprotein (hAFP) (human, UniProt P02771 19-609).
T1 construct: No signal peptide cleavage site is stated; also called human AFP
T1 sequence: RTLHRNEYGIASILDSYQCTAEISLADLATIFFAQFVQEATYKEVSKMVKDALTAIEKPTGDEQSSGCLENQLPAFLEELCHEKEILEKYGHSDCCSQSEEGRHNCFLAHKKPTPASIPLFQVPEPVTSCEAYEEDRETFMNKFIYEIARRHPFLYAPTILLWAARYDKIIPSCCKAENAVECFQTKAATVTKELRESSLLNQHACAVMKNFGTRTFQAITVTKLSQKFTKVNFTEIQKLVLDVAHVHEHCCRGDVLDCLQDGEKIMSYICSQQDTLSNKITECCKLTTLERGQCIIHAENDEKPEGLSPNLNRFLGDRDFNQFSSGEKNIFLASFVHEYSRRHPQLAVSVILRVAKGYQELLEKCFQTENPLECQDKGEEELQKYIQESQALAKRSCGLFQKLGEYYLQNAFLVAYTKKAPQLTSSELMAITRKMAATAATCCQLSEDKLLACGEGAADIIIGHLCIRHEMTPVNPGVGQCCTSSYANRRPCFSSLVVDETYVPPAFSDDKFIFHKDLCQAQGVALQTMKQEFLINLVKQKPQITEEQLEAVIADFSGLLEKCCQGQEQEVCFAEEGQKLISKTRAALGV
In words: SPR (Biacore 3000), mFcRn/mβ2m on chip, hAFP injected, neutral pH. The method, then: Surface plasmon resonance was conducted using a Biacore 3000 instrument (GE Healthcare) with CMS sensor chips coupled with recombinant human FcRn & hβ₂m heterodimer protein or mouse FcRn & mβ₂m (1000 RU). The coupling was performed by injecting 25 μg/mL of the protein diluted in 10 mM sodium acetate pH 5.0 using the amine coupling kit (GE Healthcare). Phosphate buffer (67 mM phosphate buffer, 0.15 M NaCl, 0.005% Tween 20) at pH 6.0 or pH 7.4 was used as running buffer. Glycine pH 2.5 was used for regeneration of the flow cells. hAFP (SinoBiological) was injected at 25° C. with a flow rate of 25 μl/min, and data were analyzed using the BIAevaluation 4.1 software where the sensorgrams were zero adjusted and reference cell values subtracted.
Background: Surface plasmon resonance follows binding to a sensor surface in real time, without labels.

B1: recombinant mouse FcRn & mβ2m (receptor)
chain: SETRPPLMYHLTAVSNPSTGLPSFWATGWLGPQQYLTYNSLRQEADPCGAWMWENQVSWYWEKETTDLKSKEQLFLEALKTLEKILNGTYTLQGLLGCELASDNSSVPTAVFALNGEEFMKFNPRIGNWTGEWPETEIVANLWMKQPDAARKESEFLLNSCPERLLGHLERGRRNLEWKEPPSMRLKARPGNSGSSVLTCAAFSFYPPELKFRFLRNGLASGSGNCSTGPNGDGSFHAWSLLEVKRGDEHHYQCQVEHEGLAQPLTVDLDSSARSS
b2m: IQKTPQIQVYSRHPPENGKPNILNCYVTQFHPPHIEIQMLKNGKKIPKVEMSDMSFSKDWSFYILAHTEFTPTETDTYACRVKHASMAEPKTVYWDRDM
notes: Coupled to the Biacore chip for SPR; also called mFcRn
B1: the binding result is “binds”.
